# In patent US20140087995A1 (published 2014):
# Numbered stars: 1 amine (or outer) side, 2 acyl side, 3 side chain; on linkers, the order of the positions; unused ones are H or OH. Bridge positions count the residues as written; N and C are the ends. Side chains are listed from the residue outwards. Ends that are not written are not given here. * marks the point of attachment. C20 diacid = O=C(O)CCCCCCCCCCCCCCCCCCC(=O)*; γGlu = O=C(O)[C@H](CCC(=O)[*:2])N[*:1]; AEEA = NCCOCCOCC(=O)O
# T1: human calcitonin receptor (human, UniProt P30988 25-474)
# T1 construct: whole, on cells; Cell membranes of a stably transfected BHK cell line (Assay VII); also called hCTR; hCT
# T1 sequence (looked up): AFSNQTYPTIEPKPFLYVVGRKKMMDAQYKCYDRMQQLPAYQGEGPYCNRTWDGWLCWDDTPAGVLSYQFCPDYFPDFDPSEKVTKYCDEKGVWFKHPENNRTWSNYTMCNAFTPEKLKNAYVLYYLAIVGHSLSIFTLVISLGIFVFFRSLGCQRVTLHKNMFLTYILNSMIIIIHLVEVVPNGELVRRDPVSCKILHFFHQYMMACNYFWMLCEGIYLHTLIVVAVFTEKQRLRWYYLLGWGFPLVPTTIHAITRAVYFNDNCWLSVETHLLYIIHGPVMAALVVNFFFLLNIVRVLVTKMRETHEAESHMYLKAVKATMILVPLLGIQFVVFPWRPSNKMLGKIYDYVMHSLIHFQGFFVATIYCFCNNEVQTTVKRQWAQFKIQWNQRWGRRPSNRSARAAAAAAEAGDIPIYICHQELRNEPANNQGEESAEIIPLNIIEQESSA
# T2: rat amylin receptor (rat calcitonin receptor + rat RAMP 3) (rat, UniProt P32214 25-516; Q9JJ73 23-147)
# T2 construct: whole, on cells; Cell membranes of transiently transfected BHK tk'ts 13 cells (Assay VI); also called rAmylin-R; rat amylin 3(a) receptor
# T2 sequence (looked up) 1: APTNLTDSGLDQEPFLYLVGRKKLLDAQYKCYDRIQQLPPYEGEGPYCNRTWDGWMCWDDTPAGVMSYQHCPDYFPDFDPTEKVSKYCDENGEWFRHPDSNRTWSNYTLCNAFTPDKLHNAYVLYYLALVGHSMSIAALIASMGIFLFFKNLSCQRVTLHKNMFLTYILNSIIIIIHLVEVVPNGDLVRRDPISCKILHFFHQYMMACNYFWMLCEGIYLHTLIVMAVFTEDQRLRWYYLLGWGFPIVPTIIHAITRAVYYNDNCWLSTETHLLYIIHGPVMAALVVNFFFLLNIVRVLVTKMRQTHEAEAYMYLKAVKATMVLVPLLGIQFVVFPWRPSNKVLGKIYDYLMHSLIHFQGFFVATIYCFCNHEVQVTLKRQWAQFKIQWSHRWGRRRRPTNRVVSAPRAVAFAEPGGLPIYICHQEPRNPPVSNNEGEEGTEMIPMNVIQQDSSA
# T2 sequence (looked up) 2: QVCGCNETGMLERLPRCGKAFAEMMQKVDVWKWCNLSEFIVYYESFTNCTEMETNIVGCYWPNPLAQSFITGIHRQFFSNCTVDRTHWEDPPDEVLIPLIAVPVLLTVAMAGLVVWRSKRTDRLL
# T3: rat calcitonin receptor (rat, UniProt P32214 25-516)
# T3 construct: whole, on cells; Cell membranes of transiently transfected BHK tk'ts 13 cells (Assay VIII); also called rCTR; rCT
# T3 sequence (looked up): T2 sequence (looked up) 1
# B1: N^α1-[(4S)-4-carboxy-4-(19-carboxynonadecanoylamino)butanoyl]-[Glu14,Arg17,Pro21,Pro25,Pro28,Pro29]-h-amylin (peptide)
# peptide: {C20 diacid-γGlu}-KCNTATCATQRLAEFLRHSSPNFGPILPPTNVGSNTY-NH2
# modifications: disulfide 2-7
# SMILES: CC[C@H](C)[C@H](NC(=O)[C@@H]1CCCN1C(=O)CNC(=O)[C@H](Cc1ccccc1)NC(=O)[C@H](CC(N)=O)NC(=O)[C@@H]1CCCN1C(=O)[C@H](CO)NC(=O)[C@H](CO)NC(=O)[C@H](Cc1c[nH]cn1)NC(=O)[C@H](CCCNC(=N)N)NC(=O)[C@H](CC(C)C)NC(=O)[C@H](Cc1ccccc1)NC(=O)[C@H](CCC(=O)O)NC(=O)[C@H](C)NC(=O)[C@H](CC(C)C)NC(=O)[C@H](CCCNC(=N)N)NC(=O)[C@H](CCC(N)=O)NC(=O)[C@@H](NC(=O)[C@H](C)NC(=O)[C@@H]1CSSC[C@H](NC(=O)[C@H](CCCCN)NC(=O)CC[C@H](NC(=O)CCCCCCCCCCCCCCCCCCC(=O)O)C(=O)O)C(=O)N[C@@H](CC(N)=O)C(=O)N[C@@H]([C@@H](C)O)C(=O)N[C@@H](C)C(=O)N[C@@H]([C@@H](C)O)C(=O)N1)[C@@H](C)O)C(=O)N[C@@H](CC(C)C)C(=O)N1CCC[C@H]1C(=O)N1CCC[C@H]1C(=O)N[C@H](C(=O)N[C@@H](CC(N)=O)C(=O)N[C@H](C(=O)NCC(=O)N[C@@H](CO)C(=O)N[C@@H](CC(N)=O)C(=O)N[C@H](C(=O)N[C@@H](Cc1ccc(O)cc1)C(N)=O)[C@@H](C)O)C(C)C)[C@@H](C)O
# notes: Acylated analogue of human amylin; also called compound 6
# B2: N^α1-[2-[2-[2-[[2-[2-[2-[[(4S)-4-carboxy-4-(19-carboxynonadecanoylamino)butanoyl]amino]ethoxy]ethoxy]acetyl]amino]ethoxy]ethoxy]acetyl]-[Arg17,Pro21,Pro27]-h-am … (peptide)
# peptide: KCNTATCATQRLANFLRHSSPNFGAIPSSTNVGSNTY
# modifications: C20 diacid-gGlu-2xOEG on alpha-amino of the N-terminal residue; Cys2-Cys7 disulfide; C-terminal amide (as human amylin)
# notes: Acylated analogue of human amylin; also called compound 24
# B3: N^ε1-[2-[2-[2-[[(4S)-4-carboxy-4-(19-carboxynonadecanoylamino)butanoyl]amino]ethoxy]ethoxy]acetyl]-[Arg17,Pro21,Pro27]-h-amylin (peptide)
# peptide: K([AEEA-γGlu-C20 diacid])CNTATCATQRLANFLRHSSPNFGAIPSSTNVGSNTY-NH2
# modifications: disulfide 2-7; N-terminus assumed
# SMILES: CC[C@H](C)[C@H](NC(=O)[C@H](C)NC(=O)CNC(=O)[C@H](Cc1ccccc1)NC(=O)[C@H](CC(N)=O)NC(=O)[C@@H]1CCCN1C(=O)[C@H](CO)NC(=O)[C@H](CO)NC(=O)[C@H](Cc1c[nH]cn1)NC(=O)[C@H](CCCNC(=N)N)NC(=O)[C@H](CC(C)C)NC(=O)[C@H](Cc1ccccc1)NC(=O)[C@H](CC(N)=O)NC(=O)[C@H](C)NC(=O)[C@H](CC(C)C)NC(=O)[C@H](CCCNC(=N)N)NC(=O)[C@H](CCC(N)=O)NC(=O)[C@@H](NC(=O)[C@H](C)NC(=O)[C@@H]1CSSC[C@H](NC(=O)[C@@H](N)CCCCNC(=O)COCCOCCNC(=O)CC[C@H](NC(=O)CCCCCCCCCCCCCCCCCCC(=O)O)C(=O)O)C(=O)N[C@@H](CC(N)=O)C(=O)N[C@@H]([C@@H](C)O)C(=O)N[C@@H](C)C(=O)N[C@@H]([C@@H](C)O)C(=O)N1)[C@@H](C)O)C(=O)N1CCC[C@H]1C(=O)N[C@@H](CO)C(=O)N[C@@H](CO)C(=O)N[C@H](C(=O)N[C@@H](CC(N)=O)C(=O)N[C@H](C(=O)NCC(=O)N[C@@H](CO)C(=O)N[C@@H](CC(N)=O)C(=O)N[C@H](C(=O)N[C@@H](Cc1ccc(O)cc1)C(N)=O)[C@@H](C)O)C(C)C)[C@@H](C)O
# notes: Acylated analogue of human amylin; also called compound 41
# B4: N^ε1-[2-[2-[2-(19-carboxynonadecanoylamino)ethoxy]ethoxy]acetyl]-[Arg17,Pro21,Pro27]-h-amylin (peptide)
# peptide: K([AEEA-C20 diacid])CNTATCATQRLANFLRHSSPNFGAIPSSTNVGSNTY-NH2
# modifications: disulfide 2-7; N-terminus assumed
# SMILES: CC[C@H](C)[C@H](NC(=O)[C@H](C)NC(=O)CNC(=O)[C@H](Cc1ccccc1)NC(=O)[C@H](CC(N)=O)NC(=O)[C@@H]1CCCN1C(=O)[C@H](CO)NC(=O)[C@H](CO)NC(=O)[C@H](Cc1c[nH]cn1)NC(=O)[C@H](CCCNC(=N)N)NC(=O)[C@H](CC(C)C)NC(=O)[C@H](Cc1ccccc1)NC(=O)[C@H](CC(N)=O)NC(=O)[C@H](C)NC(=O)[C@H](CC(C)C)NC(=O)[C@H](CCCNC(=N)N)NC(=O)[C@H](CCC(N)=O)NC(=O)[C@@H](NC(=O)[C@H](C)NC(=O)[C@@H]1CSSC[C@H](NC(=O)[C@@H](N)CCCCNC(=O)COCCOCCNC(=O)CCCCCCCCCCCCCCCCCCC(=O)O)C(=O)N[C@@H](CC(N)=O)C(=O)N[C@@H]([C@@H](C)O)C(=O)N[C@@H](C)C(=O)N[C@@H]([C@@H](C)O)C(=O)N1)[C@@H](C)O)C(=O)N1CCC[C@H]1C(=O)N[C@@H](CO)C(=O)N[C@@H](CO)C(=O)N[C@H](C(=O)N[C@@H](CC(N)=O)C(=O)N[C@H](C(=O)NCC(=O)N[C@@H](CO)C(=O)N[C@@H](CC(N)=O)C(=O)N[C@H](C(=O)N[C@@H](Cc1ccc(O)cc1)C(N)=O)[C@@H](C)O)C(C)C)[C@@H](C)O
# notes: Acylated analogue of human amylin; also called compound 43
# B5: N^-1-[(4S)-4-carboxy-4-(19-carboxynonadecanoylamino)butanoyl]-Gly[Arg1,Arg17,Pro21,Pro27,His35]-h-amylin (peptide)
# peptide: {C20 diacid-γGlu}-GRCNTATCATQRLANFLRHSSPNFGAIPSSTNVGSHTY-NH2
# modifications: disulfide 3-8
# SMILES: CC[C@H](C)[C@H](NC(=O)[C@H](C)NC(=O)CNC(=O)[C@H](Cc1ccccc1)NC(=O)[C@H](CC(N)=O)NC(=O)[C@@H]1CCCN1C(=O)[C@H](CO)NC(=O)[C@H](CO)NC(=O)[C@H](Cc1c[nH]cn1)NC(=O)[C@H](CCCNC(=N)N)NC(=O)[C@H](CC(C)C)NC(=O)[C@H](Cc1ccccc1)NC(=O)[C@H](CC(N)=O)NC(=O)[C@H](C)NC(=O)[C@H](CC(C)C)NC(=O)[C@H](CCCNC(=N)N)NC(=O)[C@H](CCC(N)=O)NC(=O)[C@@H](NC(=O)[C@H](C)NC(=O)[C@@H]1CSSC[C@H](NC(=O)[C@H](CCCNC(=N)N)NC(=O)CNC(=O)CC[C@H](NC(=O)CCCCCCCCCCCCCCCCCCC(=O)O)C(=O)O)C(=O)N[C@@H](CC(N)=O)C(=O)N[C@@H]([C@@H](C)O)C(=O)N[C@@H](C)C(=O)N[C@@H]([C@@H](C)O)C(=O)N1)[C@@H](C)O)C(=O)N1CCC[C@H]1C(=O)N[C@@H](CO)C(=O)N[C@@H](CO)C(=O)N[C@H](C(=O)N[C@@H](CC(N)=O)C(=O)N[C@H](C(=O)NCC(=O)N[C@@H](CO)C(=O)N[C@@H](Cc1c[nH]cn1)C(=O)N[C@H](C(=O)N[C@@H](Cc1ccc(O)cc1)C(N)=O)[C@@H](C)O)C(C)C)[C@@H](C)O
# notes: Acylated analogue of human amylin, extended by one residue at the N-terminus; also called compound 47
# B6: N^-1-[(4S)-4-carboxy-4-(19-carboxynonadecanoylamino)butanoyl]-Gly[Arg1,Arg17,Pro21,Pro27]-h-amylin (peptide)
# peptide: {C20 diacid-γGlu}-GRCNTATCATQRLANFLRHSSPNFGAIPSSTNVGSNTY-NH2
# modifications: disulfide 3-8
# SMILES: CC[C@H](C)[C@H](NC(=O)[C@H](C)NC(=O)CNC(=O)[C@H](Cc1ccccc1)NC(=O)[C@H](CC(N)=O)NC(=O)[C@@H]1CCCN1C(=O)[C@H](CO)NC(=O)[C@H](CO)NC(=O)[C@H](Cc1c[nH]cn1)NC(=O)[C@H](CCCNC(=N)N)NC(=O)[C@H](CC(C)C)NC(=O)[C@H](Cc1ccccc1)NC(=O)[C@H](CC(N)=O)NC(=O)[C@H](C)NC(=O)[C@H](CC(C)C)NC(=O)[C@H](CCCNC(=N)N)NC(=O)[C@H](CCC(N)=O)NC(=O)[C@@H](NC(=O)[C@H](C)NC(=O)[C@@H]1CSSC[C@H](NC(=O)[C@H](CCCNC(=N)N)NC(=O)CNC(=O)CC[C@H](NC(=O)CCCCCCCCCCCCCCCCCCC(=O)O)C(=O)O)C(=O)N[C@@H](CC(N)=O)C(=O)N[C@@H]([C@@H](C)O)C(=O)N[C@@H](C)C(=O)N[C@@H]([C@@H](C)O)C(=O)N1)[C@@H](C)O)C(=O)N1CCC[C@H]1C(=O)N[C@@H](CO)C(=O)N[C@@H](CO)C(=O)N[C@H](C(=O)N[C@@H](CC(N)=O)C(=O)N[C@H](C(=O)NCC(=O)N[C@@H](CO)C(=O)N[C@@H](CC(N)=O)C(=O)N[C@H](C(=O)N[C@@H](Cc1ccc(O)cc1)C(N)=O)[C@@H](C)O)C(C)C)[C@@H](C)O
# notes: Acylated analogue of human amylin, extended by one residue at the N-terminus; also called compound 46
# Biological target: T1, human calcitonin receptor
# Assay: ratio IC50 human calcitonin receptor / IC50 human amylin receptor
# Method in brief: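 Membranes (35 ng/μL final) + SPA beads, 50 mM Hepes pH 7.4 buffer with 1 mM CaCl2, 5 mM MgCl₂, 0.1% OA, 0.02% Tween20; 120 min, 25° C, shaking; centrifuged, counted; IC₅₀ by one-site binding competition.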
row,Binder,Ratio hCT/hAmylin binding
1,B1,20
2,B2,90
3,B3,49.9
4,B4,34.7
5,B5,44.9
6,B6,48.9

# Biological target: T2, rat amylin receptor (rat calcitonin …)
# Assay: SPA competition vs 125I-rat amylin, membranes with rat CTR + rat RAMP3 (Assay VI)
row,Binder,IC50
1,B1,2.37 nM
2,B2,3.01 nM
3,B3,1.37 nM
4,B4,0.11 nM
5,B5,0.203 nM
6,B6,0.33 nM

# Biological target: T3, rat calcitonin receptor
# Assay: SPA competition vs 125I-calcitonin, membranes with rat CTR (Assay VIII)
row,Binder,IC50
1,B1,51.5 nM
2,B2,350 nM
3,B3,74.1 nM
4,B4,7.6 nM
5,B5,17.1 nM
6,B6,46.8 nM

# Biological target: T3, rat calcitonin receptor
# Assay: ratio IC50 rat calcitonin receptor / IC50 rat amylin receptor
row,Binder,Ratio rCT/rAmylin binding
1,B1,21.7
2,B2,116
3,B3,54
4,B4,69.1
5,B5,84.3
6,B6,142
